Laboratory results reported in publication PMC6066285 (Cell reports, 2018).

Biological target: the molecule itself
Test: SEC

B1: recombinant FOG-3 (sizing column, Figure S2A) (domain or fragment)
chain: MYTEVRELVNFVCRYLFGHIPRRPVGIFGAELGNYLVSHFSSTWDVHHPKNGEMKRMINTTTSLCFASSAEEAGVPPSDVLRLLPTNMIIFANPGHVFVRLSENGIETPIWIGDVNCDENYQSVPEYVVRTAAIRAE
stoichiometry N: 2
